These results are taken from patent publication US20050130151.

In the series the test system is FMRP RGG box (isolated, C-terminal deletion construct) (Homo sapiens), Q06787-9. Briefly: filter.

In general, Kd refers to a measure of binding affinity in units of concentration. The low end stands for higher affinity, the high end for lower affinity.

28S rRNA fragment (230 nt) showed a Kd of over 5 µM.
